Test results as given in publication PMC4202109.

Target: Fluorescently labeled ATS (intracellular segment) of PfEMP1 variant PF08_0141, full-length segment (P. falciparum)
Experiment: fluorescence polarisation

Substance: PFE1605w PHIST domain (residues 122–335) (domain or fragment)
- Kd: 5 µM
